Biological target: NK1 receptor (human) (UniProt P25103)
Test: cell-based or functional assay

Chain of NK1 receptor (human) (P25103 87-407): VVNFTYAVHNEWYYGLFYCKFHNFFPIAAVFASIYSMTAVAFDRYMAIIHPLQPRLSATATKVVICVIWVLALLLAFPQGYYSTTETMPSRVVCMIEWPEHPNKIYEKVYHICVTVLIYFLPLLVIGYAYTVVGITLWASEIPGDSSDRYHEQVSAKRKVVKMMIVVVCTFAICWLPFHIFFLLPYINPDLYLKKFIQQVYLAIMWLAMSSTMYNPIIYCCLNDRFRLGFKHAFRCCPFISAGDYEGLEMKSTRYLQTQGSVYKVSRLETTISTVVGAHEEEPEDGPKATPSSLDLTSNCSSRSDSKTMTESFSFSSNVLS

- Percentage of inhibition of cell cultures; Lung carcinoma (non small cell lung carcinoma); cases with presence of ERK: 95%
- Percentage of inhibition of cell cultures; Lung carcinoma (non small cell lung carcinoma); cases without presence of AKT: 25%
- Percentage of inhibition of cell cultures; Lung carcinoma (non small cell lung carcinoma); cases without presence of ERK: 29%
- Percentage of inhibition of cell cultures; Lung carcinoma (non small cell type); Group 1 (expression in less than 20% of the cells): 23%
- Percentage of inhibition of cell cultures; Lung carcinoma (non small cell type); Group 2 (expression in 20-80% of the cells): 55%
- Percentage of inhibition of cell cultures; Lung carcinoma (non small cell type); Group 3 (expression in more than 80% of the cells): 94%
- Percentage of inhibition of cell cultures; Lung carcinoma (non small cell type); Intensity grade 1: 24%
- Percentage of inhibition of cell cultures; Lung carcinoma (non small cell type); Intensity grade 2: 55%
- Percentage of inhibition of cell cultures; Lung carcinoma (non small cell type); Intensity grade 3: 97%
- Percentage of inhibition of cell cultures; Lung carcinoma (small cell lung carcinoma); cases with presence of AKT: 94%
- Percentage of inhibition of cell cultures; Lung carcinoma (small cell lung carcinoma); cases with presence of ERK: 94%
- Percentage of inhibition of cell cultures; Lung carcinoma (small cell lung carcinoma); cases without presence of AKT: 24%
- Percentage of inhibition of cell cultures; Lung carcinoma (small cell lung carcinoma); cases without presence of ERK: 27%
- Percentage of inhibition of cell cultures; Lung carcinoma (small cell type); Group 1 (expression in less than 20% of the cells): 24%
- Percentage of inhibition of cell cultures; Lung carcinoma (small cell type); Group 2 (expression in 20-80% of the cells): 56%
- Percentage of inhibition of cell cultures; Lung carcinoma (small cell type); Group 3 (expression in more than 80% of the cells): 95%
- Percentage of inhibition of cell cultures; Lung carcinoma (small cell type); Intensity grade 1: 25%
- Percentage of inhibition of cell cultures; Lung carcinoma (small cell type); Intensity grade 2: 54%
- Percentage of inhibition of cell cultures; Lung carcinoma (small cell type); Intensity grade 3: 94%
- Percentage of inhibition of cell cultures; Malignant Fibrous Histiocytoma.; Group 1 (expression in less than 20% of the cells): 22%
- Percentage of inhibition of cell cultures; Malignant Fibrous Histiocytoma.; Group 2 (expression in 20-80% of the cells): 56%
- Percentage of inhibition of cell cultures; Malignant Fibrous Histiocytoma.; Group 3 (expression in more than 80% of the cells): 96%
- Percentage of inhibition of cell cultures; Malignant Fibrous Histiocytoma.; Intensity grade 1: 25%
- Percentage of inhibition of cell cultures; Malignant Fibrous Histiocytoma.; Intensity grade 2: 55%
- Percentage of inhibition of cell cultures; Malignant Fibrous Histiocytoma.; Intensity grade 3: 95%
- Percentage of inhibition of cell cultures; Melanoma (Nodular Melanoma); cases with presence of AKT: 97%
- Percentage of inhibition of cell cultures; Melanoma (Nodular Melanoma); cases with presence of ERK: 90%
- Percentage of inhibition of cell cultures; Melanoma (Nodular Melanoma); cases without presence of AKT: 25%
- Percentage of inhibition of cell cultures; Melanoma (Nodular Melanoma); cases without presence of ERK: 28%
- Percentage of inhibition of cell cultures; Melanoma; Group 1 (expression in less than 20% of the cells): 24%
- Percentage of inhibition of cell cultures; Melanoma; Group 2 (expression in 20-80% of the cells): 55%
- Percentage of inhibition of cell cultures; Melanoma; Group 3 (expression in more than 80% of the cells): 96%
- Percentage of inhibition of cell cultures; Melanoma; Intensity grade 1: 23%
- Percentage of inhibition of cell cultures; Melanoma; Intensity grade 2: 56%
- Percentage of inhibition of cell cultures; Melanoma; Intensity grade 3: 97%
- Percentage of inhibition of cell cultures; Myeloma; Group 1 (expression in less than 20% of the cells): 23%
- Percentage of inhibition of cell cultures; Myeloma; Group 2 (expression in 20-80% of the cells): 56%
- Percentage of inhibition of cell cultures; Myeloma; Group 3 (expression in more than 80% of the cells): 96%
- Percentage of inhibition of cell cultures; Myeloma; Intensity grade 1: 25%
- Percentage of inhibition of cell cultures; Myeloma; Intensity grade 2: 56%
- Percentage of inhibition of cell cultures; Myeloma; Intensity grade 3: 95%
- Percentage of inhibition of cell cultures; Neuroblastoma; Group 1 (expression in less than 20% of the cells): 22%
- Percentage of inhibition of cell cultures; Neuroblastoma; Group 2 (expression in 20-80% of the cells): 54%
- Percentage of inhibition of cell cultures; Neuroblastoma; Group 3 (expression in more than 80% of the cells): 95%
- Percentage of inhibition of cell cultures; Neuroblastoma; Intensity grade 1: 25%
- Percentage of inhibition of cell cultures; Neuroblastoma; Intensity grade 2: 53%
- Percentage of inhibition of cell cultures; Neuroblastoma; Intensity grade 3: 93%
- Percentage of inhibition of cell cultures; Non Hodgkin Lymphoma B (diffuse B cell lymphoma); cases with presence of AKT: 95%
- Percentage of inhibition of cell cultures; Non Hodgkin Lymphoma B (diffuse B cell lymphoma); cases with presence of ERK: 98%
- Percentage of inhibition of cell cultures; Non Hodgkin Lymphoma B (diffuse B cell lymphoma); cases without presence of AKT: 24%
- Percentage of inhibition of cell cultures; Non Hodgkin Lymphoma B (diffuse B cell lymphoma); cases without presence of ERK: 29%
- Percentage of inhibition of cell cultures; Non Hodgkin Lymphoma B; Group 1 (expression in less than 20% of the cells): 23%
- Percentage of inhibition of cell cultures; Non Hodgkin Lymphoma B; Group 2 (expression in 20-80% of the cells): 54%
- Percentage of inhibition of cell cultures; Non Hodgkin Lymphoma B; Group 3 (expression in more than 80% of the cells): 96%
- Percentage of inhibition of cell cultures; Non Hodgkin Lymphoma B; Intensity grade 1: 26%
- Percentage of inhibition of cell cultures; Non Hodgkin Lymphoma B; Intensity grade 2: 55%
- Percentage of inhibition of cell cultures; Non Hodgkin Lymphoma B; Intensity grade 3: 96%
- Percentage of inhibition of cell cultures; Non Hodgkin Lymphoma T (diffuse T cell lymphoma); cases with presence of AKT: 94%
- Percentage of inhibition of cell cultures; Non Hodgkin Lymphoma T (diffuse T cell lymphoma); cases with presence of ERK: 97%
- Percentage of inhibition of cell cultures; Non Hodgkin Lymphoma T (diffuse T cell lymphoma); cases without presence of AKT: 25%
- Percentage of inhibition of cell cultures; Non Hodgkin Lymphoma T (diffuse T cell lymphoma); cases without presence of ERK: 27%
- Percentage of inhibition of cell cultures; Non Hodgkin Lymphoma T; Group 1 (expression in less than 20% of the cells): 23%
- Percentage of inhibition of cell cultures; Non Hodgkin Lymphoma T; Group 2 (expression in 20-80% of the cells): 55%
- Percentage of inhibition of cell cultures; Non Hodgkin Lymphoma T; Group 3 (expression in more than 80% of the cells): 96%
- Percentage of inhibition of cell cultures; Non Hodgkin Lymphoma T; Intensity grade 1: 27%
- Percentage of inhibition of cell cultures; Non Hodgkin Lymphoma T; Intensity grade 2: 56%
- Percentage of inhibition of cell cultures; Non Hodgkin Lymphoma T; Intensity grade 3: 95%
- Percentage of inhibition of cell cultures; Ovarian carcinoma (Adenocarcinoma); cases with presence of AKT: 95%
- Percentage of inhibition of cell cultures; Ovarian carcinoma (Adenocarcinoma); cases with presence of ERK: 96%
- Percentage of inhibition of cell cultures; Ovarian carcinoma (Adenocarcinoma); cases without presence of AKT: 24%
- Percentage of inhibition of cell cultures; Ovarian carcinoma (Adenocarcinoma); cases without presence of ERK: 24%
- Percentage of inhibition of cell cultures; Ovarian carcinoma; Group 1 (expression in less than 20% of the cells): 24%
- Percentage of inhibition of cell cultures; Ovarian carcinoma; Group 2 (expression in 20-80% of the cells): 55%
- Percentage of inhibition of cell cultures; Ovarian carcinoma; Group 3 (expression in more than 80% of the cells): 97%
- Percentage of inhibition of cell cultures; Ovarian carcinoma; Intensity grade 1: 23%
- Percentage of inhibition of cell cultures; Ovarian carcinoma; Intensity grade 2: 54%
- Percentage of inhibition of cell cultures; Ovarian carcinoma; Intensity grade 3: 96%
- Percentage of inhibition of cell cultures; Pancreatic carcinoma (Adenocarcinoma); cases with presence of AKT: 95%
- Percentage of inhibition of cell cultures; Pancreatic carcinoma (Adenocarcinoma); cases with presence of ERK: 94%
- Percentage of inhibition of cell cultures; Pancreatic carcinoma (Adenocarcinoma); cases without presence of AKT: 94%
- Percentage of inhibition of cell cultures; Pancreatic carcinoma (Adenocarcinoma); cases without presence of ERK: 94%
- Percentage of inhibition of cell cultures; Pancreatic carcinoma; Group 1 (expression in less than 20% of the cells): 23%
- Percentage of inhibition of cell cultures; Pancreatic carcinoma; Group 2 (expression in 20-80% of the cells): 53%
- Percentage of inhibition of cell cultures; Pancreatic carcinoma; Group 3 (expression in more than 80% of the cells): 96%
- Percentage of inhibition of cell cultures; Pancreatic carcinoma; Intensity grade 1: 22%
- Percentage of inhibition of cell cultures; Pancreatic carcinoma; Intensity grade 2: 54%
- Percentage of inhibition of cell cultures; Pancreatic carcinoma; Intensity grade 3: 93%
- Percentage of inhibition of cell cultures; Prostate carcinoma; Group 1 (expression in less than 20% of the cells): 23%
- Percentage of inhibition of cell cultures; Prostate carcinoma; Group 2 (expression in 20-80% of the cells): 57%
- Percentage of inhibition of cell cultures; Prostate carcinoma; Group 3 (expression in more than 80% of the cells): 96%
- Percentage of inhibition of cell cultures; Prostate carcinoma; Intensity grade 1: 24%
- Percentage of inhibition of cell cultures; Prostate carcinoma; Intensity grade 2: 56%
- Percentage of inhibition of cell cultures; Prostate carcinoma; Intensity grade 3: 93%
- Percentage of inhibition of cell cultures; Prostate carcinoma; cases with presence of AKT: 90%
- Percentage of inhibition of cell cultures; Prostate carcinoma; cases with presence of ERK: 90%
- Percentage of inhibition of cell cultures; Prostate carcinoma; cases without presence of AKT: 26%
- Percentage of inhibition of cell cultures; Prostate carcinoma; cases without presence of ERK: 27%
- Percentage of inhibition of cell cultures; Renal cell carcinoma (clear cell renal cell carcinoma); cases with presence of AKT: 94%
- Percentage of inhibition of cell cultures; Renal cell carcinoma (clear cell renal cell carcinoma); cases with presence of ERK: 95%
- Percentage of inhibition of cell cultures; Renal cell carcinoma (clear cell renal cell carcinoma); cases without presence of AKT: 34%
- Percentage of inhibition of cell cultures; Renal cell carcinoma (clear cell renal cell carcinoma); cases without presence of ERK: 32%
- Percentage of inhibition of cell cultures; Renal cell carcinoma; Group 1 (expression in less than 20% of the cells): 22%
- Percentage of inhibition of cell cultures; Renal cell carcinoma; Group 2 (expression in 20-80% of the cells): 52%
- Percentage of inhibition of cell cultures; Renal cell carcinoma; Group 3 (expression in more than 80% of the cells): 94%
- Percentage of inhibition of cell cultures; Renal cell carcinoma; Intensity grade 1: 23%
- Percentage of inhibition of cell cultures; Renal cell carcinoma; Intensity grade 2: 53%
- Percentage of inhibition of cell cultures; Renal cell carcinoma; Intensity grade 3: 97%
- Percentage of inhibition of cell cultures; Thyroid carcinoma (follicular carcinoma); cases with presence of AKT: 96%
- Percentage of inhibition of cell cultures; Thyroid carcinoma (follicular carcinoma); cases with presence of ERK: 96%
- Percentage of inhibition of cell cultures; Thyroid carcinoma (follicular carcinoma); cases without presence of AKT: 24%
- Percentage of inhibition of cell cultures; Thyroid carcinoma (follicular carcinoma); cases without presence of ERK: 26%
- Percentage of inhibition of cell cultures; Thyroid carcinoma (folliculary type); Group 1 (expression in less than 20% of the cells): 25%
- Percentage of inhibition of cell cultures; Thyroid carcinoma (folliculary type); Group 2 (expression in 20-80% of the cells): 54%
- Percentage of inhibition of cell cultures; Thyroid carcinoma (folliculary type); Group 3 (expression in more than 80% of the cells): 96%
- Percentage of inhibition of cell cultures; Thyroid carcinoma (folliculary type); Intensity grade 1: 26%
- Percentage of inhibition of cell cultures; Thyroid carcinoma (folliculary type); Intensity grade 2: 53%
- Percentage of inhibition of cell cultures; Thyroid carcinoma (folliculary type); Intensity grade 3: 95%
- Percentage of inhibition of cell cultures; Thyroid carcinoma (papillary carcinoma); cases with presence of AKT: 89%
- Percentage of inhibition of cell cultures; Thyroid carcinoma (papillary carcinoma); cases with presence of ERK: 89%
- Percentage of inhibition of cell cultures; Thyroid carcinoma (papillary carcinoma); cases without presence of AKT: 24%
- Percentage of inhibition of cell cultures; Thyroid carcinoma (papillary carcinoma); cases without presence of ERK: 27%
- Percentage of inhibition of cell cultures; Thyroid carcinoma (papillary type); Group 1 (expression in less than 20% of the cells): 22%
- Percentage of inhibition of cell cultures; Thyroid carcinoma (papillary type); Group 2 (expression in 20-80% of the cells): 53%
- Percentage of inhibition of cell cultures; Thyroid carcinoma (papillary type); Group 3 (expression in more than 80% of the cells): 94%
- Percentage of inhibition of cell cultures; Thyroid carcinoma (papillary type); Intensity grade 1: 24%
- Percentage of inhibition of cell cultures; Thyroid carcinoma (papillary type); Intensity grade 2: 56%
- Percentage of inhibition of cell cultures; Thyroid carcinoma (papillary type); Intensity grade 3: 94%
- Percentage of inhibition of cell cultures; Undifferentiated Pleomorphic Sarcoma (malignant fibrous histiocytoma grade 3); cases with presence of AKT: 90%
- Percentage of inhibition of cell cultures; Undifferentiated Pleomorphic Sarcoma (malignant fibrous histiocytoma grade 3); cases with presence of ERK: 90%
- Percentage of inhibition of cell cultures; Undifferentiated Pleomorphic Sarcoma (malignant fibrous histiocytoma grade 3); cases without presence of AKT: 25%
- Percentage of inhibition of cell cultures; Undifferentiated Pleomorphic Sarcoma (malignant fibrous histiocytoma grade 3); cases without presence of ERK: 27%
- Percentage of inhibition of cell cultures; Urinary bladder carcinoma (transitional cell carcinoma); cases with presence of AKT: 91%
- Percentage of inhibition of cell cultures; Urinary bladder carcinoma (transitional cell carcinoma); cases with presence of ERK: 88%
- Percentage of inhibition of cell cultures; Urinary bladder carcinoma (transitional cell carcinoma); cases without presence of AKT: 25%
- Percentage of inhibition of cell cultures; Urinary bladder carcinoma (transitional cell carcinoma); cases without presence of ERK: 28%
- Percentage of inhibition of cell cultures; Urinary bladder carcinoma; Group 1 (expression in less than 20% of the cells): 23%
- Percentage of inhibition of cell cultures; Urinary bladder carcinoma; Group 2 (expression in 20-80% of the cells): 54%
- Percentage of inhibition of cell cultures; Urinary bladder carcinoma; Group 3 (expression in more than 80% of the cells): 95%
- Percentage of inhibition of cell cultures; Urinary bladder carcinoma; Intensity grade 1: 25%
- Percentage of inhibition of cell cultures; Urinary bladder carcinoma; Intensity grade 2: 55%
- Percentage of inhibition of cell cultures; Urinary bladder carcinoma; Intensity grade 3: 96%
Substance: antibody against NK1 receptor (Sigma-Aldrich, catalogue number S8305)
